{"source": "patent US20200062844A1", "about": "(Regeneron, published 2020)", "binders": {"B1": {"name": "bsAb24921D (bispecific antibody, human IgG4 S228P, kappa)", "heavy 1": "QVQVQESGPRLVKPSETLSLTCTVSGGSMSSYYWIWIRQPPGKELEWIGYIYYSGSTNYNPSLKSRATISVDTSKNQFSLNLNSVTAADTAVYYCARRNNWNYVRAFDIWGQGTMVTVSSASTKGPSVFPLAPCSRSTSESTAALGCLVKDYFPEPVTVSWNSGALTSGVHTFPAVLQSSGLYSLSSVVTVPSSSLGTKTYTCNVDHKPSNTKVDKRVESKYGPPCPPCPAPPVAGPSVFLFPPKPKDTLMISRTPEVTCVVVDVSQEDPEVQFNWYVDGVEVHNAKTKPREEQFNSTYRVVSVLTVLHQDWLNGKEYKCKVSNKGLPSSIEKTISKAKGQPREPQVYTLPPSQEEMTKNQVSLTCLVKGFYPSDIAVEWESNGQPENNYKTTPPVLDSDGSFFLYSRLTVDKSRWQEGNVFSCSVMHEALHNHYTQKSLSLSLGK", "heavy 2": "EVQLVESGGGLVQPGRSLRLSCAASGFTFDDYSMHWVRQAPGKGLEWVSGISWNSGSIGYADSVKGRFTISRDNAKNSLYLQMNSLRAEDTALYYCAKYGSGYGKFYYYGMDVWGQGTTVTVSSASTKGPSVFPLAPCSRSTSESTAALGCLVKDYFPEPVTVSWNSGALTSGVHTFPAVLQSSGLYSLSSVVTVPSSSLGTKTYTCNVDHKPSNTKVDKRVESKYGPPCPPCPAPPVAGPSVFLFPPKPKDTLMISRTPEVTCVVVDVSQEDPEVQFNWYVDGVEVHNAKTKPREEQFNSTYRVVSVLTVLHQDWLNGKEYKCKVSNKGLPSSIEKTISKAKGQPREPQVYTLPPSQEEMTKNQVSLTCLVKGFYPSDIAVEWESNGQPENNYKTTPPVLDSDGSFFLYSRLTVDKSRWQEGNVFSCSVMHEALHNRFTQKSLSLSPGK", "light": "not shown", "notes": "IgG4 Fc domain; two distinct heavy chains with a common light chain; also called anti-FcεR1α×CD3 bispecific antibody; FcεR1α × hCD3"}}, "key": {"[1]": {"target": "T1, monkey (cynomolgus) FcεR1α expressed on cells (cynomolgus)", "T1 construct": "range 4-260; On HEK293 cells, co-expressed with human FcεR1β and FcεR1γ; also called mfFcεR1α; HEK293/mfFcεR1α/hFcεR1β/hFcεR1γ cells", "test": "flow cytometry, 70 nM antibody on HEK293/mfFcεR1α/hFcεR1β/hFcεR1γ cells, No IgE", "procedure": "(§1) For flow cytometry analysis, HEK293, HEK293/hFcεR1α/hFcεR1β/hFcεR1γ and HEK293/mf FcεR1α/hFcεR1β/hFcεR1γ cells were collected after dissociation using Enzyme Free Dissociation Buffer (Millipore Cat# S-004), and the cells were pre-incubated with or without 70 nM human IgE, for 30 minutes on ice in FACS buffer (PBS, without Ca⁺⁺ and Mg⁺⁺, (Irvine Scientific, Cat#9240) containing 2% FBS). Jurkat/NFAT-luc cells were also collected. The antibodies at the concentration of 70 nM were then added to 1×10⁶ cells/well of each cell type at 4° C. for 30 minutes. […] Cells were fixed using BD CytoFix™ (Becton Dickinson, Cat. #554655) and analyzed on Accuri™ C6 (BD) or CytoFLEX Flow cytometer (Beckman Coulter). Unstained and secondary antibody alone controls were also tested for all cell lines and a sample was evaluated for viability using the Far Red Fluo viability dye (Thermo Fisher, Cat#L10120) according to the manufacturer's protocol. The results were analyzed using FlowJo software (version 10.0.8, FlowJo) to determine the geometric means of fluorescence for viable cells and the binding ratio was calculated with the mean fluorescence intensity (MFI) of the experimental condition normalized by the MFI of the unstained respective cells."}, "[2]": {"target": "T2, hFcεR1α.MMH (human)", "T2 construct": "also called ectodomain of human FcεR1α with C-term myc-myc-6×His tag", "T2 chain": "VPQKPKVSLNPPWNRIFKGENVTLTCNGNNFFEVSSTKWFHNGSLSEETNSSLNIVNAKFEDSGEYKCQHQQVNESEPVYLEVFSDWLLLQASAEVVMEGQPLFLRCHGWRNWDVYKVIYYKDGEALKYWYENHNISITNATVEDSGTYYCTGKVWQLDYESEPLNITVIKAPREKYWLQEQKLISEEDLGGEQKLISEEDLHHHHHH", "test": "SPR (Biacore 8k), antibody captured on anti-human Fc, hFcεR1α.MMH injected, 25°C", "procedure": "(§2) Equilibrium dissociation constants (KD) for human or cynomolgus FcεR1α ectodomain binding to purified anti-FcεR1α monoclonal antibodies (mAbs) and CD3×FcεR1α bispecific antibodies (bsAbs) were determined using a real-time surface plasmon resonance biosensor (SPR-Biacore), Biacore 8k. All binding studies were performed in 10 mM HEPES, 150 mM NaCl, 3 mM EDTA, and 0.05% v/v surfactant Tween-20, pH 7.4 (HBS-ET) running buffer at 25° C. and 37° C.\n(§3) The Biacore CM4 sensor surface was first derivatized by amine coupling with a monoclonal mouse anti-human Fc antibody to capture approximately 500-900 RUs anti-FcεR1α monoclonal antibodies or anti-CD3×FcεR1α bispecific monoclonal antibodies. 1 RU (response unit) represents 1 pg of protein per mm², as defined by the manufacturer. The ectodomain of human and cynomolgus FcεR1α reagents were expressed with a C-term myc-myc-6×His tag-hFcεR1α.MMH (SEQ ID NO: 57) and mfFcεR1α.MMH (SEQ ID NO: 58). Different concentrations of FcεR1α reagents were prepared in HBS-ET running buffer (600 nM-7.4 nM; serially diluted by 3-fold) and injected over anti-human Fc captured anti-FcεR1α monoclonal antibodies or anti-CD3×FcεR1α bispecific monoclonal antibodies surfaces for 1 minute at a flow rate of 30 μL/minute. The dissociation of bound FcεR1α reagents was monitored for 4 minutes in HBS-ET running buffer. Association (kₐ) and dissociation (kd) rate constants were determined by fitting the real-time binding sensorgrams to a 1:1 binding model with mass transport limitation using Biacore 8k evaluation software. Binding dissociation equilibrium constants (KD) and dissociative half-lives (t½) were calculated from the kinetic rate constants as: […]"}, "[3]": {"target": "T3, human FcεR1α expressed on cells (human, UniProt P12319 26-257)", "T3 sequence (looked up)": "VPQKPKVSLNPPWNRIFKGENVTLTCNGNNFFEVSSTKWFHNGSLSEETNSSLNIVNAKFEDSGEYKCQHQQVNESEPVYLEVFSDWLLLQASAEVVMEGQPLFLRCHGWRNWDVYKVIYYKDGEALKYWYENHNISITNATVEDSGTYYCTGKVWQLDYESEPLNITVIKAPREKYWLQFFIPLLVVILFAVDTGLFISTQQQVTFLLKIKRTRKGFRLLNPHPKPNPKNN", "test": "cell-based or functional assay"}, "[4]": {"target": "T4, mfFcεR1α.MMH (cynomolgus (Macaca fascicularis))", "T4 construct": "also called mfFceR1a.MMH; ectodomain of cynomolgus FcεR1α with C-term myc-myc-6×His tag", "T4 chain": "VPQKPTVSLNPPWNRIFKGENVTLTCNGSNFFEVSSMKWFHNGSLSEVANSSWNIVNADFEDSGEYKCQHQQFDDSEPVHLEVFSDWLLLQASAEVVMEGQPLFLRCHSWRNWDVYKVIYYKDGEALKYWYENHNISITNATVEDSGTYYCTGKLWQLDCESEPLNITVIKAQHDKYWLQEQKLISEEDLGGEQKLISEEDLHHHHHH", "test": "SPR (Biacore 8k), antibody captured on anti-human Fc, mfFcεR1α.MMH injected, 37°C", "procedure": "as §2, §3"}, "[5]": {"target": "T3, human FcεR1α expressed on cells", "test": "flow cytometry, 70 nM antibody on HEK293/hFcεR1α/hFcεR1β/hFcεR1γ cells pre-incubated with 70 nM human IgE", "procedure": "as §1"}, "[6]": {"target": "T5, human CD3 expressed in Jurkat cells (human, UniProt P07766 23-207; P04234 22-171; P20963 22-164; P09693 23-182)", "T5 construct": "Endogenous CD3 complex of Jurkat T cells; also called hCD3; Jurkat/NFAT-luc cells", "T5 sequence (P07766 23-207 limits assumed, chain 1 of 4)": "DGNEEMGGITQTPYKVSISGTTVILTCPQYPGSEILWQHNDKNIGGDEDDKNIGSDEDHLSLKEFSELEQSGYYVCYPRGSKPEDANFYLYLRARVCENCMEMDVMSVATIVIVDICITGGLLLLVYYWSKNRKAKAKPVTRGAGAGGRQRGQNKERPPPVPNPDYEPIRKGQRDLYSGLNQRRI", "T5 sequence (P04234 22-171 limits assumed, chain 2 of 4)": "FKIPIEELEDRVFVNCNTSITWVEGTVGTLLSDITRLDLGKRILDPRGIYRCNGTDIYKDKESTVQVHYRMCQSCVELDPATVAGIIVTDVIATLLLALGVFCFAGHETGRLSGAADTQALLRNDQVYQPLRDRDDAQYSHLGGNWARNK", "T5 sequence (P20963 22-164 limits assumed, chain 3 of 4)": "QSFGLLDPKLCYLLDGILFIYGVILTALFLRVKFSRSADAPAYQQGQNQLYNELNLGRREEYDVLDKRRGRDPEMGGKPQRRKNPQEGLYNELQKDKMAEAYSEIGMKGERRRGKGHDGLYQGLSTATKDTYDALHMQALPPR", "T5 sequence (P09693 23-182 limits assumed, chain 4 of 4)": "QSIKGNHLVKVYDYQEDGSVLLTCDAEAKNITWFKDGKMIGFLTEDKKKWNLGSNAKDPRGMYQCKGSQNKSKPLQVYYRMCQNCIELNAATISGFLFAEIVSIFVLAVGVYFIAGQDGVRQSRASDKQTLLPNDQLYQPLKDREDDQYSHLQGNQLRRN", "test": "flow cytometry, 70 nM antibody on Jurkat/NFAT-luc cells, No IgE", "procedure": "as §1"}, "[7]": {"target": "T2, hFcεR1α.MMH", "test": "SPR (Biacore 8k), antibody captured on anti-human Fc, hFcεR1α.MMH injected, 37°C", "procedure": "as §2, §3"}, "[8]": {"target": "T3, human FcεR1α expressed on cells", "test": "cell-based or functional assay", "remark": "listed apart in the source"}, "[9]": {"target": "T4, mfFcεR1α.MMH", "test": "SPR (Biacore 8k), antibody captured on anti-human Fc, mfFcεR1α.MMH injected, 25°C", "procedure": "as §2, §3"}, "[10]": {"target": "T3, human FcεR1α expressed on cells", "test": "flow cytometry, 70 nM antibody on HEK293/hFcεR1α/hFcεR1β/hFcεR1γ cells, No IgE", "procedure": "as §1"}, "[11]": {"target": "T1, monkey (cynomolgus) FcεR1α expressed on …", "test": "flow cytometry, 70 nM antibody on HEK293/mfFcεR1α/hFcεR1β/hFcεR1γ cells pre-incubated with 70 nM human IgE", "procedure": "as §1"}, "[12]": {"target": "T5, human CD3 expressed in Jurkat cells", "test": "cell-based or functional assay"}}}
{"binder": "B1", "values": [{"measurement": "Binding Ratio (MFI of Treated/MFI of Unstained)", "setting": "[1]", "result": 169}, {"measurement": "600 nM hFcεR1α.MMH Bound (RU)", "setting": "[2]", "result": 69, "unit": "RU"}, {"measurement": "Kd", "setting": "[2]", "result": 274, "unit": "nM"}, {"measurement": "koff", "setting": "[2]", "result": 0.0212, "unit": "s⁻¹"}, {"measurement": "kon", "setting": "[2]", "result": 77400, "unit": "M⁻¹ s⁻¹"}, {"measurement": "t½", "setting": "[2]", "result": 32.4, "unit": "s"}, {"measurement": "EC50, decrease of primary human basophils within PBMC with activated CD8+ T cells", "setting": "[3]", "result": 4, "unit": "nM"}, {"measurement": "Maximum percent basophil decrease, PBMC with activated CD8+ T cells", "setting": "[3]", "result": 90.9, "unit": "%"}, {"measurement": "600 nM mfFceR1a.MMH Bound (RU)", "setting": "[4]", "result": 37, "unit": "RU"}, {"measurement": "Kd", "setting": "[4]", "result": 520, "unit": "nM"}, {"measurement": "koff", "setting": "[4]", "result": 0.0445, "unit": "s⁻¹"}, {"measurement": "kon", "setting": "[4]", "result": 85600, "unit": "M⁻¹ s⁻¹"}, {"measurement": "t½", "setting": "[4]", "result": 15.6, "unit": "s"}, {"measurement": "Binding Ratio (MFI of Treated/MFI of Unstained)", "setting": "[5]", "result": 295}, {"measurement": "Binding Ratio (MFI of Treated/MFI of Unstained)", "setting": "[6]", "result": 94}, {"measurement": "600 nM hFcεR1α.MMH Bound (RU)", "setting": "[7]", "result": 40, "unit": "RU"}, {"measurement": "Kd", "setting": "[7]", "result": 977, "unit": "nM"}, {"measurement": "koff", "setting": "[7]", "result": 0.0934, "unit": "s⁻¹"}, {"measurement": "kon", "setting": "[7]", "result": 95600, "unit": "M⁻¹ s⁻¹"}, {"measurement": "t½", "setting": "[7]", "result": 7.2, "unit": "s"}, {"measurement": "EC80, cleaved caspase 3+ cleaved PARP+ HEK293/hFcεR1α/hFcεR1β/hFcεR1γ target cells with activated CD8+ T cells", "setting": "[8]", "result": 0.0613, "unit": "nM"}, {"measurement": "Maximum percent apoptotic cells, HEK293/hFcεR1α/hFcεR1β/hFcεR1γ target cells with activated CD8+ T cells", "setting": "[8]", "result": 55.8, "unit": "%"}, {"measurement": "600 nM mfFceR1a.MMH Bound (RU)", "setting": "[9]", "result": 60, "unit": "RU"}, {"measurement": "Kd", "setting": "[9]", "result": 256, "unit": "nM"}, {"measurement": "koff", "setting": "[9]", "result": 0.0161, "unit": "s⁻¹"}, {"measurement": "kon", "setting": "[9]", "result": 62900, "unit": "M⁻¹ s⁻¹"}, {"measurement": "t½", "setting": "[9]", "result": 42, "unit": "s"}, {"measurement": "Binding Ratio (MFI of Treated/MFI of Unstained)", "setting": "[10]", "result": 253}, {"measurement": "Binding Ratio (MFI of Treated/MFI of Unstained)", "setting": "[11]", "result": 284}, {"measurement": "EC50 [M], NFAT-luciferase in Jurkat/NFAT-luc with HEK293/hFcεR1α/hFcεR1β/hFcεR1γ cells, 10 nM IgE", "setting": "[12]", "result": "1.1e-09", "unit": "M"}, {"measurement": "EC50 [M], NFAT-luciferase in Jurkat/NFAT-luc with HEK293/hFcεR1α/hFcεR1β/hFcεR1γ cells, No IgE", "setting": "[12]", "result": "2.3e-10", "unit": "M"}, {"measurement": "Fold Activation, Jurkat/NFAT-luc with HEK293/hFcεR1α/hFcεR1β/hFcεR1γ cells, 10 nM IgE", "setting": "[12]", "result": 27, "unit": "fold"}, {"measurement": "Fold Activation, Jurkat/NFAT-luc with HEK293/hFcεR1α/hFcεR1β/hFcεR1γ cells, No IgE", "setting": "[12]", "result": 24, "unit": "fold"}]}
